From patent publication CN116410305A (ATTOGEN BIOMEDICAL SUZHOU INC LTD, dated 2023) come the findings set out here.

In this experiment the target is T1, 宫颈癌组织/细胞中内源的HPV16 E6蛋白 (HPV16, UniProt P03126 1-158).
T1 construct: Target detected by IHC or ICC in fixed tissue or cells; also called HPV16 E6致癌蛋白; HPV16 E6癌蛋白
The experiment can be described thus: IHC on FFPE cervical cancer tissue array, clone supernatant.

T1 sequence (P03126 whole entry): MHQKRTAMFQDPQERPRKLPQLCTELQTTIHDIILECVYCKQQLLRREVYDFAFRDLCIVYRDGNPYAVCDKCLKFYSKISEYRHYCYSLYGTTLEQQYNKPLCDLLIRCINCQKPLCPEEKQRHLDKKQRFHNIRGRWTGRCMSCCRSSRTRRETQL

B1: 抗HPV16 E6单克隆抗体A3E1 (antibody, V domains shown)
VH: QSLEESGGGLVTPGGTLTLTCTASGIDFSANYWIYWVRQTPGKGLEWIASIFTSDGETHYATWAKGRFTISKTSSTTVTLQMTSLTAADTATYFCATGGALWGPGTLVTVSS
VL: DIVMTQTPASVEAAVGGTVTIKCQASEDIENYLAWYQQKPGQPPKRLIYKASTLASGVPSRFKGSGSGTDFTLTISDLECADAATYYCQSNYYNFGSNYGSFAFGGGTEVVVK
notes: Rabbit monoclonal IgG from single B cell cloning, tested as B cell clone supernatant and as recombinant IgG from CHO cells; also called 克隆上清A3E1; 抗体克隆A3E1
As to B1, the binding result is “binds”.
